We go through 167 variants from the Human Domainome abundance scans (Beltran et al. 2025).

± gives the uncertainty stated by the source.

B1: Death-inducer obliterator 1, residues 263 to 321; numbered along this chain, Q9BTC0 (parent)
chain: GYDPNALYCICRQPHNNRFMICCDRCEEWFHGDCVGISEARGRLLERNGEDYICPNCTI

In this data set the parent is B1. The experiment in a line: abundance fitness (aPCA) (normalised: wild type 0, dead -1); higher = more abundant; growth selection in yeast, the domain comes from the species named. Conditions: Homo sapiens.
Regarding Y8L, the abundance fitness worked out at 0.048 ± 0.047.
Y8C: the abundance fitness was found to be 0.069 ± 0.092.
For the variant Y8F, the abundance fitness was 0.035 ± 0.12.
To Y8Q belongs -0.019 ± 0.081; to L7W, -0.055 ± 0.15.
For the variant L7K, the abundance fitness was -0.012 ± 0.23.
As for L7C, the abundance fitness is -0.062 ± 0.078.
As to L7D, the abundance fitness was -0.415 ± 0.1.
Regarding L7T, the abundance fitness was -0.006 ± 0.066.
Regarding L7M, the abundance fitness came to 0.1 ± 0.072.
Regarding A6N, the abundance fitness came to 0.041 ± 0.13.
Regarding A6W, the abundance fitness is -0.569 ± 0.13.
For the variant A6K, the abundance fitness was -0.412 ± 0.1.
Consider A6S, for which the abundance fitness was -0.511 ± 0.12.
The result for A6Y reads -0.806 ± 0.21; that for G49A, 0.052 ± 0.11; that for G49R, -0.066 ± 0.087.
The result for G49T reads -0.047 ± 0.1; that for G49S, 0.173 ± 0.19.
G49C: the abundance fitness is -0.216 ± 0.4.
For the variant G49F, the abundance fitness is -0.243 ± 0.17.
For the variant G49M, the abundance fitness is -0.002 ± 0.095.
As to L45K, the abundance fitness was -0.173 ± 0.14.
For the variant L45C, the abundance fitness was -0.062 ± 0.097.
For L45M, the abundance fitness was -0.096 ± 0.11.
The result for L45E reads 0.075 ± 0.11; that for L45I, -0.214 ± 0.24; that for D24P, 0.082 ± 0.064.
Turning to D24A, the abundance fitness was 0.139 ± 0.054.
On to D24W, for which the abundance fitness is -0.227 ± 0.085.
For D24C, the abundance fitness stood at 0.048 ± 0.06.
The result for D24I reads -0.124 ± 0.12; that for D24E, 0.026 ± 0.11; that for D24V, 0.258 ± 0.074.
Take N16E: the abundance fitness came to 0.072 ± 0.082.
N16C: the abundance fitness is -0.211 ± 0.089.
Regarding N16V, the abundance fitness was -0.045 ± 0.057.
As for E46Q, the abundance fitness was -0.218 ± 0.21.
With E46H, the abundance fitness is -0.663 ± 0.45.
The result for E46Y reads 0.065 ± 0.17; that for E46F, -0.16 ± 0.1.
To E46L belongs -0.109 ± 0.083; to E46N, -0.009 ± 0.19; to E46W, -0.265 ± 0.2.
In the case of E46M, the abundance fitness is -0.055 ± 0.071.
Consider R47Q, for which the abundance fitness is -0.346 ± 0.38.
Take R47A: the abundance fitness turned out to be 0.083 ± 0.093.
As for R47M, the abundance fitness is -0.155 ± 0.17.
Consider R47E, for which the abundance fitness was -0.043 ± 0.13.
Regarding R47T, the abundance fitness turned out to be 0.134 ± 0.12.
As to E27P, the abundance fitness is -0.004 ± 0.082.
To E27D belongs 0.012 ± 0.11; to E27W, -0.09 ± 0.076.
The result for E27Q reads -0.066 ± 0.11; that for E27T, -0.007 ± 0.067.
For the variant E50R, the abundance fitness is -0.273 ± 0.13.
Take E50A: the abundance fitness is -0.011 ± 0.11.
E50N: the abundance fitness is -0.027 ± 0.13.
As to E50G, the abundance fitness is -0.046 ± 0.099.
As to E50H, the abundance fitness was -0.006 ± 0.24.
For the variant S38D, the abundance fitness was determined as 0.197 ± 0.081.
To S38M belongs 0.118 ± 0.12.
The result for S38L reads -0.076 ± 0.059; that for S38H, -0.033 ± 0.15; that for S38V, 0.071 ± 0.067.
As to S38W, the abundance fitness is -0.109 ± 0.2.
With R18V, the abundance fitness came out at 0.03 ± 0.052.
As for R18M, the abundance fitness turned out to be 0.139 ± 0.07.
With R18E, the abundance fitness was -0.023 ± 0.11.
Regarding R18S, the abundance fitness came out at 0.104 ± 0.074.
As for R18C, the abundance fitness is -0.047 ± 0.083.
In the case of R18P, the abundance fitness was -0.34 ± 0.15.
To R18I belongs -0.215 ± 0.17.
With G36S, the abundance fitness is -0.002 ± 0.058.
As to G36M, the abundance fitness was determined as 0.009 ± 0.062.
G36F: the abundance fitness was -0.256 ± 0.12.
For G36C, the abundance fitness was -0.122 ± 0.092.
On to G36L, for which the abundance fitness is -0.135 ± 0.061.
The result for G36Y reads -0.066 ± 0.069; that for Q13K, -0.054 ± 0.066.
Q13F: the abundance fitness was -0.159 ± 0.1.
On to Q13I, for which the abundance fitness was -0.111 ± 0.072.
In the case of Q13N, the abundance fitness is -0.061 ± 0.15.
Q13D: the abundance fitness was 0.02 ± 0.11.
In the case of Q13T, the abundance fitness amounted to 0.105 ± 0.076.
To Y2N belongs 0.269 ± 0.15.
As for Y2H, the abundance fitness is 0.156 ± 0.09.
Y2G: the abundance fitness came to 0.165 ± 0.085.
To Y2M belongs 0.161 ± 0.1; to Y2E, 0.347 ± 0.12; to Y2I, 0.298 ± 0.16.
Turning to Y2D, the abundance fitness is -0.03 ± 0.16.
As for Y2P, the abundance fitness is 0.102 ± 0.1.
The result for N5V reads -0.186 ± 0.13.
For the variant N5A, the abundance fitness is -0.413 ± 0.092.
For N5T, the abundance fitness was -0.319 ± 0.082.
For N5Q, the abundance fitness is -0.112 ± 0.085.
The result for D51C reads -0.094 ± 0.12.
Turning to D51Y, the abundance fitness worked out at 0.177 ± 0.1.
Take D51K: the abundance fitness is -0.216 ± 0.34.
On to D51I, for which the abundance fitness was -0.135 ± 0.18.
Take D51A: the abundance fitness came out at 0.142 ± 0.093.
As for D51G, the abundance fitness is 0.088 ± 0.098.
In the case of V35Q, the abundance fitness was -0.183 ± 0.1.
As to V35C, the abundance fitness is -0.113 ± 0.12.
Take V35R: the abundance fitness was -0.387 ± 0.07.
The result for V35P reads -0.345 ± 0.083; that for V35E, -0.602 ± 0.1; that for R41N, 0.24 ± 0.12.
With R41P, the abundance fitness came out at 0.135 ± 0.093.
As to R41E, the abundance fitness was 0.085 ± 0.11.
The result for R41K reads -0.008 ± 0.1; that for R41L, -0.078 ± 0.071.
R41C: the abundance fitness worked out at 0.062 ± 0.08.
To R41Y belongs -0.065 ± 0.17; to R41D, 0.347 ± 0.2; to P4G, -0.122 ± 0.067.
The result for P4S reads 0.091 ± 0.078.
Regarding P4F, the abundance fitness worked out at 0.264 ± 0.17.
Turning to P4D, the abundance fitness was 0.354 ± 0.26.
Consider Y52S, for which the abundance fitness was -0.235 ± 0.077.
To Y52I belongs -0.196 ± 0.13; to Y52M, -0.598 ± 0.26; to Y52W, 0.09 ± 0.045.
With Y52N, the abundance fitness is -0.334 ± 0.42.
Consider Y52V, for which the abundance fitness is -0.151 ± 0.084.
To C57S belongs -0.848 ± 0.12; to C57Y, -0.903 ± 0.22.
In the case of C57V, the abundance fitness is -0.904 ± 0.15.
Regarding C57A, the abundance fitness was -1.04 ± 0.2.
As for C57N, the abundance fitness is -0.582 ± 0.3.
The result for R43P reads 0.182 ± 0.078; that for R43N, 0.044 ± 0.2.
As for R43V, the abundance fitness was -0.202 ± 0.097.
The result for R43A reads 0.143 ± 0.15; that for R43F, -0.318 ± 0.097.
On to R43E, for which the abundance fitness came out at 0.133 ± 0.12.
R43K: the abundance fitness was 0.057 ± 0.2.
In the case of I37C, the abundance fitness is -0.113 ± 0.12.
As for I37H, the abundance fitness is -0.076 ± 0.14.
As for I37W, the abundance fitness worked out at 0.061 ± 0.049.
The result for I37Q reads 0.091 ± 0.066.
For the variant I37T, the abundance fitness worked out at 0.062 ± 0.09.
Take I37R: the abundance fitness is -0.017 ± 0.057.
In the case of I37V, the abundance fitness was -0.12 ± 0.072.
As for L44I, the abundance fitness was -0.238 ± 0.12.
With L44D, the abundance fitness is -0.063 ± 0.085.
For L44N, the abundance fitness was 0.121 ± 0.065.
In the case of L44Q, the abundance fitness is 0.047 ± 0.081.
As to L44K, the abundance fitness was 0.048 ± 0.079.
In the case of H15M, the abundance fitness worked out at 0.138 ± 0.065.
On to H15F, for which the abundance fitness was -0.414 ± 0.16.
As for H15Q, the abundance fitness is -0.148 ± 0.11.
To H15N belongs 0.051 ± 0.092.
The result for H15S reads 0.164 ± 0.053; that for H15V, 0.076 ± 0.05; that for H15A, -0.088 ± 0.073.
To H15G belongs 0.017 ± 0.055; to C22S, 0.023 ± 0.056; to C22M, 0.102 ± 0.068.
Regarding C22K, the abundance fitness is 0.058 ± 0.055.
For C22F, the abundance fitness is 0.137 ± 0.12.
Turning to C22E, the abundance fitness is 0.023 ± 0.096.
With C22H, the abundance fitness is 0.056 ± 0.12.
Regarding C22R, the abundance fitness was found to be 0.11 ± 0.078.
Consider C11T, for which the abundance fitness is -0.747 ± 0.13.
As to C11M, the abundance fitness is -0.71 ± 0.11.
